Test results taken from publication PMC4761994, “Unraveling and engineering the production of 23,24-bisnorcholenic steroids in sterol metabolism” (Scientific Reports, 2016).

Key:
Hsd4AMN = target: T1, Hsd4AMN (Mycolicibacterium neoaurum, UniProt A0A0H3W613); test: NADH oxidation at […] nm, Michaelis-Menten fit; format: biochemical; conditions: NADH 125 μM; 125 mM Tris-HCl pH 8.0; 30 °C
T1 construct: gene hsd4A

[1] = tested on: CC(O)CC(=O)SCCNC(=O)CCNC(=O)[C@H](O)C(C)(C)COP(=O)(O)OP(=O)(O)OC[C@H]1O[C@@H](n2cnc3c(N)ncnc32)[C@H](O)[C@@H]1OP(=O)(O)O; test: purified protein; format: biochemical, Mycolicibacterium neoaurum; conditions: NAD+ 125 μM, 125 mM glycine-NaOH pH 9.0, 30 °C, DL mixture of substrate, pH 9.0
[2] = tested on: C[C@]12CC[C@H]3[C@@H](CCC4=CC(=O)C=C[C@@]43C)[C@@H]1CC[C@@H]2O; test: purified protein; format: biochemical, Mycolicibacterium neoaurum; conditions: NAD+ 100 μM, 100 mM Tris-HCl pH 7.8, 30 °C, pH 7.8
[3] = tested on: C[C@]12CC[C@H]3[C@@H](CCC4=CC(=O)CC[C@@]43C)[C@@H]1CC[C@@H]2O; test: purified protein; format: biochemical, Mycolicibacterium neoaurum; conditions: NAD+ 100 μM, 100 mM Tris-HCl pH 7.8, 30 °C, pH 7.8

CC(=O)CC(=O)SCCNC(=O)CCNC(=O)[C@H](O)C(C)(C)COP(=O)(O)OP(=O)(O)OC[C@H]1O[C@@H](n2cnc3c(N)ncnc32)[C@H](O)[C@@H]1OP(=O)(O)O [acetoacetyl-CoA]
Km (Hsd4AMN): 101 ± 27 µM

Hsd4AMN (Mycolicibacterium neoaurum ATCC 25795)
Km [1]: 124 ± 39 µM | Vmax [1]: 0.113 µmol/min/mg | Km [2]: 19 ± 4 µM | Vmax [2]: 0.217 µmol/min/mg | Km [3]: 23 ± 7 µM | Vmax [3]: 0.169 µmol/min/mg
